Reference: publication PMC9482650, “Quantitative fragmentomics allow affinity mapping of interactomes” (Nature Communications, 2022)
Changes are numbered by the printed parent chain.

Key:
Assay in all cases: holdup assay
Parameters in all cases: key: below the threshold = too weak to quantify, mostly under pKd 3.1 to 4
[1] = molecular target: T1, APBA2_1, Q99767
T1 sequence (Q99767 563-664, limits assumed, looked up): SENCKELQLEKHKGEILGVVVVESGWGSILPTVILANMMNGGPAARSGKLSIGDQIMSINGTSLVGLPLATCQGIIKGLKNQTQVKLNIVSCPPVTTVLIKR

[2] = molecular target: ARHGEF12, Q9NZN5-2
[3] = molecular target: T2, DLG3_1, Q92796
T2 sequence (Q92796 125-227, limits assumed, looked up): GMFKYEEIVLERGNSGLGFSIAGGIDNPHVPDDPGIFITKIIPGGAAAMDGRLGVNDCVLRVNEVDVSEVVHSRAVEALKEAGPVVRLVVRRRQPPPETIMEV

[4] = molecular target: T3, DLG3_2, Q92796
T3 sequence (Q92796 221-321, limits assumed, looked up): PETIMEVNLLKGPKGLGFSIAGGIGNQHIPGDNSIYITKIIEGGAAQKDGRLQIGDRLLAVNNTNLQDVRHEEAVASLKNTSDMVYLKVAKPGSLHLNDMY

[5] = molecular target: T4, DVL3, Q92997
T4 sequence (Q92997 244-331, limits assumed, looked up): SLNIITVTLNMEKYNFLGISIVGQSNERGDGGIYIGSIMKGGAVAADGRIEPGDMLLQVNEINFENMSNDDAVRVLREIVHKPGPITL

[6] = molecular target: T5, FRMPD1, Q5SYB0
T5 sequence (Q5SYB0 52-145, limits assumed, looked up): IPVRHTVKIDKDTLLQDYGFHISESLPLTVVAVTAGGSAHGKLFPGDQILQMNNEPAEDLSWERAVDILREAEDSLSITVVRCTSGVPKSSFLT

[7] = molecular target: FRMPD2_2, Q68DX3
[8] = molecular target: GORASP2, Q9H8Y8
[9] = molecular target: GRID2IP_1, A4D2P6
[10] = molecular target: T6, GRIP1_2, Q9Y3R0
T6 sequence (Q9Y3R0 145-248, limits assumed, looked up): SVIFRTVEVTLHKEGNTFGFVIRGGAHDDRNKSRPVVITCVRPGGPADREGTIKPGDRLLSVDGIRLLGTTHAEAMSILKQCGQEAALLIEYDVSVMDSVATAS

[11] = molecular target: HTRA1, Q92743
[12] = molecular target: HTRA2, O43464
[13] = molecular target: IL16_4, Q14005
[14] = molecular target: Inadl_8, Q8NI35
[15] = molecular target: LAP2, Q96RT1
[16] = molecular target: T7, LIN7A, O14910
T7 sequence (O14910 103-200, limits assumed, looked up): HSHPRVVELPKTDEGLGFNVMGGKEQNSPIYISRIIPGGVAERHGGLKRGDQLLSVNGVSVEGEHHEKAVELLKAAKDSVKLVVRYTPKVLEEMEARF

[17] = molecular target: T8, LIN7B, Q9HAP6
T8 sequence (Q9HAP6 88-185, limits assumed, looked up): T7 sequence (O14910 103-200, limits assumed, looked up) with S2A, V20I, I35V, E42D, H65Q, K77Q, D78G, K89R

[18] = molecular target: LNX1_3, Q8TBB1
[19] = molecular target: T9, MPP6, Q9NZW5
T9 sequence (Q9NZW5 125-219, limits assumed, looked up): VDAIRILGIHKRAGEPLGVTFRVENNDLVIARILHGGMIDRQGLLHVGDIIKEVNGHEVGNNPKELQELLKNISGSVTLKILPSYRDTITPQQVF

[20] = molecular target: NHERF4_1, Q86UT5-2
[21] = molecular target: T10, PCLO, Q9Y6V0
T10 sequence (Q9Y6V0 4491-4600, limits assumed, looked up): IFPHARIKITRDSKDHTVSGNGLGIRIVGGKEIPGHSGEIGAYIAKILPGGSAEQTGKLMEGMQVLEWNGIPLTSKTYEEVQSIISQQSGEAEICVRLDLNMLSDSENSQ

[22] = molecular target: PDLIM1, O00151
[23] = molecular target: T11, PDZRN3_1, Q9UPQ7
T11 sequence (Q9UPQ7 244-349, limits assumed, looked up): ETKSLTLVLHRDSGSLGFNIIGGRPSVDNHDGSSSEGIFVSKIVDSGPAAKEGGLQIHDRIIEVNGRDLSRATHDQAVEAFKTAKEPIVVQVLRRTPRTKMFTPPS

[24] = molecular target: SCRIB_3, Q14160
[25] = molecular target: T12, SNTG1, Q9NSN8
T12 sequence (Q9NSN8 52-150, limits assumed, looked up): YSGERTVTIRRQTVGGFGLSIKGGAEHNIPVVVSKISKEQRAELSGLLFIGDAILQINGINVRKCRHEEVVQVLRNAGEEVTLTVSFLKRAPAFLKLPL

[26] = molecular target: TJP1_3, Q07157
[27] = plain residues with an end cap or a label only (N-terminal biotin on a linker: ado-ado)
[28] = plain residues with an end cap or a label only (N-terminal biotin on a linker: ahx)

Sequence of NHERF4_1, Q86UT5-2 (Q86UT5 other isoform, or with tags, fused parts or gaps): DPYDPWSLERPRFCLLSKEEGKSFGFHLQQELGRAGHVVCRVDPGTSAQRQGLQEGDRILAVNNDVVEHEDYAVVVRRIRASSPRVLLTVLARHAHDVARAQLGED
Sequence of FRMPD2_2, Q68DX3 (Q68DX3 944-1038): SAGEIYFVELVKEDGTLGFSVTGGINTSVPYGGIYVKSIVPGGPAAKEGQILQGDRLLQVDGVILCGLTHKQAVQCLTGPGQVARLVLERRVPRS
Sequence of TJP1_3, Q07157 (Q07157 416-512): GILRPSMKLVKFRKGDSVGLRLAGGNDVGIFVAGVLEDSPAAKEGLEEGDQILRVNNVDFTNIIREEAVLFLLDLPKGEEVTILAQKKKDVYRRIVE
Sequence of HTRA1, Q92743 (Q92743 360-477): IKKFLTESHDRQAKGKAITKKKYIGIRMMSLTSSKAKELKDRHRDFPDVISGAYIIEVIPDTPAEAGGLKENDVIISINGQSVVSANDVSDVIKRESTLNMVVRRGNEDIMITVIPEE
Sequence of PDLIM1, O00151 (O00151 1-87): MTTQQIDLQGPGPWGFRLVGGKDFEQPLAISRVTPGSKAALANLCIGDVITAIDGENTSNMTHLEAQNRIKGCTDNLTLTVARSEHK
Sequence of SCRIB_3, Q14160 (Q14160 999-1103): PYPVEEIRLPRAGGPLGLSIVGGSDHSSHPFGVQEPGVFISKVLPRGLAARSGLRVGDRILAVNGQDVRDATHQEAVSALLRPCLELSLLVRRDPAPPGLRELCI
Sequence of LNX1_3, Q8TBB1 (Q8TBB1 500-596): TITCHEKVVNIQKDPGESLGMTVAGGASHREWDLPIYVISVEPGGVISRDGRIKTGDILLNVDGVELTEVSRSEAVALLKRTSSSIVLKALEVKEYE
Sequence of Inadl_8, Q8NI35 (Q8NI35 1425-1530): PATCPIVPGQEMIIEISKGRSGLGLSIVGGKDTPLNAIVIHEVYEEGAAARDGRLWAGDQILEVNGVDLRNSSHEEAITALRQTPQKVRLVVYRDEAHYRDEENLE
Sequence of ARHGEF12, Q9NZN5-2 (Q9NZN5 other isoform, or with tags, fused parts or gaps): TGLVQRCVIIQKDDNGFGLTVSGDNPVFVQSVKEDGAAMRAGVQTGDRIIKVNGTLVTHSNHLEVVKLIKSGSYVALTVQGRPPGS
Sequence of LAP2, Q96RT1 (Q96RT1 other isoform, or with tags, fused parts or gaps): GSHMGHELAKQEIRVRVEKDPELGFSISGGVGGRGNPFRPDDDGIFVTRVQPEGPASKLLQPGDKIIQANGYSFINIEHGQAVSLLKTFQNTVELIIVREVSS
Sequence of GRID2IP_1, A4D2P6 (A4D2P6 1-87): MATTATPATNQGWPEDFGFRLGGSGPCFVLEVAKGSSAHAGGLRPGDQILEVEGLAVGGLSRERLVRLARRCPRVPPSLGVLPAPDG
Sequence of HTRA2, O43464 (O43464 355-458): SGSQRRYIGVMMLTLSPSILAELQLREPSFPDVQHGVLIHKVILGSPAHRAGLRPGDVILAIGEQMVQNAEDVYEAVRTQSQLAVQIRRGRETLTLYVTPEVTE
Sequence of IL16_4, Q14005 (Q14005 1229-1329): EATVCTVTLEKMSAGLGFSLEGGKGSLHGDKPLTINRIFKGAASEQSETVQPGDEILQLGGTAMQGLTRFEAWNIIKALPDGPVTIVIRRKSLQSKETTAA

## GEDRSPPTAL [MKNK1, Q9BUB5]
[1]; [27]
  pKd: below the threshold
[2]; [27]
  pKd: below the threshold
[3]; [27]
  pKd: below the threshold
[4]; [27]
  pKd: below the threshold
[5]; [27]
  pKd: below the threshold
[6]; [27]
  pKd: below the threshold
[7]; [27]
  pKd: below the threshold
[8]; [27]
  pKd: below the threshold
[9]; [27]
  pKd: below the threshold
[10]; [27]
  pKd: below the threshold
[11]; [27]
  pKd: below the threshold
[12]; [27]
  pKd: below the threshold
[13]; [27]
  pKd: below the threshold
[14]; [27]
  pKd: below the threshold
[15]; [27]
  pKd: below the threshold
[16]; [27]
  pKd: below the threshold
[17]; [27]
  pKd: below the threshold
[18]; [27]
  pKd: below the threshold
[19]; [27]
  pKd: 3.59
[20]; [27]
  pKd: 4.34
[21]; [27]
  pKd: below the threshold
[22]; [27]
  pKd: below the threshold
[23]; [27]
  pKd: below the threshold
[24]; [27]
  pKd: 4.57
[25]; [27]
  pKd: below the threshold
[26]; [27]
  pKd: below the threshold

## NNNVVKVDSV [MTNR1A, P48039]
[1]; [27]
  pKd: below the threshold
[2]; [27]
  pKd: below the threshold
[3]; [27]
  pKd: below the threshold
[4]; [27]
  pKd: 4.03
[5]; [27]
  pKd: below the threshold
[6]; [27]
  pKd: below the threshold
[7]; [27]
  pKd: below the threshold
[8]; [27]
  pKd: below the threshold
[9]; [27]
  pKd: below the threshold
[10]; [27]
  pKd: below the threshold
[11]; [27]
  pKd: below the threshold
[12]; [27]
  pKd: below the threshold
[13]; [27]
  pKd: 3.5
[14]; [27]
  pKd: 4.22
[15]; [27]
  pKd: below the threshold
[16]; [27]
  pKd: below the threshold
[17]; [27]
  pKd: 3.7
[18]; [27]
  pKd: below the threshold
[19]; [27]
  pKd: below the threshold
[20]; [27]
  pKd: 3.51
[21]; [27]
  pKd: below the threshold
[22]; [27]
  pKd: below the threshold
[23]; [27]
  pKd: below the threshold
[24]; [27]
  pKd: below the threshold
[25]; [27]
  pKd: below the threshold
[26]; [27]
  pKd: below the threshold

## LPAVCYDIDI [PTTG2, Q9NZH5]
[1]; [27]
  pKd: below the threshold
[2]; [27]
  pKd: below the threshold
[3]; [27]
  pKd: below the threshold
[4]; [27]
  pKd: 4.09
[5]; [27]
  pKd: below the threshold
[6]; [27]
  pKd: below the threshold
[7]; [27]
  pKd: below the threshold
[8]; [27]
  pKd: 3.66
[9]; [27]
  pKd: below the threshold
[10]; [27]
  pKd: below the threshold
[11]; [27]
  pKd: 3.9
[12]; [27]
  pKd: below the threshold
[13]; [27]
  pKd: below the threshold
[14]; [27]
  pKd: below the threshold
[15]; [27]
  pKd: below the threshold
[16]; [27]
  pKd: below the threshold
[17]; [27]
  pKd: 3.53
[18]; [27]
  pKd: below the threshold
[19]; [27]
  pKd: 3.54
[20]; [27]
  pKd: below the threshold
[21]; [27]
  pKd: below the threshold
[22]; [27]
  pKd: below the threshold
[23]; [27]
  pKd: below the threshold
[24]; [27]
  pKd: 4.29
[25]; [27]
  pKd: 3.64
[26]; [27]
  pKd: below the threshold

## SVTSERETNI [SLC16A7, O60669]
[1]; [27]
  pKd: below the threshold
[2]; [27]
  pKd: 3.67
[3]; [27]
  pKd: below the threshold
[4]; [27]
  pKd: 4.25
[5]; [27]
  pKd: below the threshold
[6]; [27]
  pKd: below the threshold
[7]; [27]
  pKd: below the threshold
[8]; [27]
  pKd: below the threshold
[9]; [27]
  pKd: below the threshold
[10]; [27]
  pKd: below the threshold
[11]; [27]
  pKd: below the threshold
[12]; [27]
  pKd: below the threshold
[13]; [27]
  pKd: 3.49
[14]; [27]
  pKd: below the threshold
[15]; [27]
  pKd: below the threshold
[16]; [27]
  pKd: below the threshold
[17]; [27]
  pKd: 3.62
[18]; [27]
  pKd: below the threshold
[19]; [27]
  pKd: 3.52
[20]; [27]
  pKd: below the threshold
[21]; [27]
  pKd: below the threshold
[22]; [27]
  pKd: below the threshold
[23]; [27]
  pKd: 4
[24]; [27]
  pKd: 4.93
[25]; [27]
  pKd: 4.61
[26]; [27]
  pKd: below the threshold

## QNTDDVQTSF [ACE2, Q9BYF1]
[1]; [28]
  pKd: below the threshold
[2]; [28]
  pKd: 3.65
[3]; [28]
  pKd: below the threshold
[4]; [28]
  pKd: 3.76
[5]; [28]
  pKd: below the threshold
[6]; [28]
  pKd: below the threshold
[7]; [28]
  pKd: below the threshold
[8]; [28]
  pKd: below the threshold
[9]; [28]
  pKd: below the threshold
[10]; [28]
  pKd: below the threshold
[11]; [28]
  pKd: below the threshold
[12]; [28]
  pKd: below the threshold
[13]; [28]
  pKd: below the threshold
[14]; [28]
  pKd: below the threshold
[15]; [28]
  pKd: below the threshold
[16]; [28]
  pKd: below the threshold
[17]; [28]
  pKd: below the threshold
[18]; [28]
  pKd: below the threshold
[19]; [28]
  pKd: below the threshold
[20]; [28]
  pKd: 3.65
[21]; [28]
  pKd: below the threshold
[22]; [28]
  pKd: below the threshold
[23]; [28]
  pKd: below the threshold
[24]; [28]
  pKd: below the threshold
[25]; [28]
  pKd: below the threshold
[26]; [28]
  pKd: below the threshold
